Measurements from doi:10.1101/2022.01.11.475809, “HP1β Chromo Shadow Domain facilitates H2A ubiquitination for BRCA1 recruitment at DNA double-strand breaks” (bioRxiv, 2022).

Biological target: T1, FL-RING1A (1–406aa), recombinant (human, UniProt Q06587 1-406)
T1 construct: Human RING1A, full length, residues 1-406; Subcloned into the bacterial expression 1GFP vector (Addgene #29663, the vector's id); purification as in Hambarde et al., 2021 with other buffers; also called RING1A-FL; Human FL-RING1A; source: bacterial expression vector, purified (HisTrap, TEV cleavage, Superdex 75)
T1 sequence (looked up): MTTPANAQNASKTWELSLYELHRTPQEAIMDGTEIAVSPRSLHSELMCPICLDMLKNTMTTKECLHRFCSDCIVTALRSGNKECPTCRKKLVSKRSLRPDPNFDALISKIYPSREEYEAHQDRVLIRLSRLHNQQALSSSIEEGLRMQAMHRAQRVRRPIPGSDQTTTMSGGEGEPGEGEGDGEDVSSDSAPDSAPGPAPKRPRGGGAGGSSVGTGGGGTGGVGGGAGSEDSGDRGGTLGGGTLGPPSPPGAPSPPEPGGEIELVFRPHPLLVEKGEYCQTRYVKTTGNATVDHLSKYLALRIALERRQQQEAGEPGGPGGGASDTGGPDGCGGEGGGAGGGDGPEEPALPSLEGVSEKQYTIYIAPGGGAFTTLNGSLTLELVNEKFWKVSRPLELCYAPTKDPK
Experiment: pull-down; FL-RING1A incubated with His6-CSD HP1β at molar ratio 1:2 in buffer H (20 mM Tris pH 8, 70 mM NaCl, 5% glycerol, 5 mM BME, 100 µM ZnCl2) on ice for 20 min; Ni-NTA resin, elution with 300 mM imidazole; SDS-PAGE and western blot
Settings: both partners purified

B1: His6-CSD HP1β (80–185aa), recombinant (domain or fragment)
chain: not shown
notes: HP1β residues 80-185 (hinge part and chromo shadow domain); 'Human' is printed before the two constructs of the sentence; Subcloned into the bacterial expression 1B vector (Addgene #29653, the vector's id); source: bacterial expression vector, purified (HisTrap, Superdex 75)
binding result: binds
